# Measured values from the MegaScale stability set (Tsuboyama et al. 2023).
# B1: EHEE_rd2_0196 (parent)
# chain: TETRTFDSEEEAKKAQKEAEKQGRTVTITRRDDRWEVRFD
# Variants of: B1
# Experiment: folding stability dG (cDNA display proteolysis); higher = more stable
# Conditions: PBS, room temperature
row,Variant,folding stability dG [kcal/mol]
1,TETRTFDSEEEAKKFQKEAEKQGRTVTITRRDDRWEVRFD [A15F],4.24
2,TETRTFDSEEEAKKRQKEAEKQGRTVTITRRDDRWEVRFD [A15R],1.46
3,TETRTFDSEEEAKKVQKEAEKQGRTVTITRRDDRWEVRFD [A15V],2.91
4,TETRTFDSEEEAKKQQKEAEKQGRTVTITRRDDRWEVRFD [A15Q],2.08
5,TETRTFDSEEEAKKWQKEAEKQGRTVTITRRDDRWEVRFD [A15W],3.37
6,TETRTFDSEEEAKKYQKEAEKQGRTVTITRRDDRWEVRFD [A15Y],3.95
7,TETRTFDSEEEAKKIQKEAEKQGRTVTITRRDDRWEVRFD [A15I],2.69
8,TETRTFDSEEEAKKNQKEAEKQGRTVTITRRDDRWEVRFD [A15N],1.58
9,TETRTFDSEEEAKKEQKEAEKQGRTVTITRRDDRWEVRFD [A15E],2.24
10,TETRTFDSEEEAKKTQKEAEKQGRTVTITRRDDRWEVRFD [A15T],2.04
11,TETRTFDSEEEAKKMQKEAEKQGRTVTITRRDDRWEVRFD [A15M],2.79
12,TETRTFDSEEEAKKDQKEAEKQGRTVTITRRDDRWEVRFD [A15D],1.13
13,TETRTFDSEEEAKKSQKEAEKQGRTVTITRRDDRWEVRFD [A15S],2.18
14,TETRTFDSEEEAKKHQKEAEKQGRTVTITRRDDRWEVRFD [A15H],2.69
15,TETRTFDSEEEAKKKQKEAEKQGRTVTITRRDDRWEVRFD [A15K],1.45
16,TETRTFDSEEEAKKGQKEAEKQGRTVTITRRDDRWEVRFD [A15G],1.18
17,TETRTFDSEEEAKKPQKEAEKQGRTVTITRRDDRWEVRFD [A15P],0.28
18,TETRTFDSEEEAKKLQKEAEKQGRTVTITRRDDRWEVRFD [A15L],2.76
19,TETRTFDSEEGAKKAQKEAEKQGRTVTITRRDDRWEVRFD [E11G],2.34
20,TETRTFDSEENAKKAQKEAEKQGRTVTITRRDDRWEVRFD [E11N],1.96
21,TETRTFDSEETAKKAQKEAEKQGRTVTITRRDDRWEVRFD [E11T],1.75

row,Variant,folding stability dG [kcal/mol]
1,TETRTFDSEEIAKKAQKEAEKQGRTVTITRRDDRWEVRFD [E11I],1.46
2,TETRTFDSEEVAKKAQKEAEKQGRTVTITRRDDRWEVRFD [E11V],1.43
3,TETRTFDSEESAKKAQKEAEKQGRTVTITRRDDRWEVRFD [E11S],2.18
4,TETRTFDSEELAKKAQKEAEKQGRTVTITRRDDRWEVRFD [E11L],2.4
5,TETRTFDSEEAAKKAQKEAEKQGRTVTITRRDDRWEVRFD [E11A],2.75
6,TETRTFDSEEQAKKAQKEAEKQGRTVTITRRDDRWEVRFD [E11Q],2.54
7,TETRTFDSEEWAKKAQKEAEKQGRTVTITRRDDRWEVRFD [E11W],1.28
8,TETRTFDSEEYAKKAQKEAEKQGRTVTITRRDDRWEVRFD [E11Y],1.46
9,TETRTFDSEEFAKKAQKEAEKQGRTVTITRRDDRWEVRFD [E11F],1.47
10,TETRTFDSEEDAKKAQKEAEKQGRTVTITRRDDRWEVRFD [E11D],2.95
11,TETRTFDSEEPAKKAQKEAEKQGRTVTITRRDDRWEVRFD [E11P],0.769
12,TETRTFDSEEHAKKAQKEAEKQGRTVTITRRDDRWEVRFD [E11H],1.61
13,TETRTFDSEEKAKKAQKEAEKQGRTVTITRRDDRWEVRFD [E11K],2.21
14,TETRTFDSEERAKKAQKEAEKQGRTVTITRRDDRWEVRFD [E11R],1.47
15,TETRTFDSEEMAKKAQKEAEKQGRTVTITRRDDRWEVRFD [E11M],2.47
16,TETRTFDSEKEAKKAQKEAEKQGRTVTITRRDDRWEVRFD [E10K],2.46
17,TETRTFDSEREAKKAQKEAEKQGRTVTITRRDDRWEVRFD [E10R],2.28
18,TETRTFDSEIEAKKAQKEAEKQGRTVTITRRDDRWEVRFD [E10I],2.58
19,TETRTFDSESEAKKAQKEAEKQGRTVTITRRDDRWEVRFD [E10S],2.18
20,TETRTFDSEFEAKKAQKEAEKQGRTVTITRRDDRWEVRFD [E10F],2.69
21,TETRTFDSEQEAKKAQKEAEKQGRTVTITRRDDRWEVRFD [E10Q],2.67

row,Variant,folding stability dG [kcal/mol]
1,TETRTFDSEGEAKKAQKEAEKQGRTVTITRRDDRWEVRFD [E10G],2.21
2,TETRTFDSEWEAKKAQKEAEKQGRTVTITRRDDRWEVRFD [E10W],2.93
3,TETRTFDSEPEAKKAQKEAEKQGRTVTITRRDDRWEVRFD [E10P],1.88
4,TETRTFDSEDEAKKAQKEAEKQGRTVTITRRDDRWEVRFD [E10D],2.76
5,TETRTFDSEVEAKKAQKEAEKQGRTVTITRRDDRWEVRFD [E10V],2.58
6,TETRTFDSEYEAKKAQKEAEKQGRTVTITRRDDRWEVRFD [E10Y],2.71
7,TETRTFDSENEAKKAQKEAEKQGRTVTITRRDDRWEVRFD [E10N],2.17
8,TETRTFDSETEAKKAQKEAEKQGRTVTITRRDDRWEVRFD [E10T],2.04
9,TETRTFDSELEAKKAQKEAEKQGRTVTITRRDDRWEVRFD [E10L],2.51
10,TETRTFDSEMEAKKAQKEAEKQGRTVTITRRDDRWEVRFD [E10M],2.59
11,TETRTFDSEHEAKKAQKEAEKQGRTVTITRRDDRWEVRFD [E10H],2.5
12,TETRTFDSEEEYKKAQKEAEKQGRTVTITRRDDRWEVRFD [A12Y],1.08
13,TETRTFDSEEERKKAQKEAEKQGRTVTITRRDDRWEVRFD [A12R],0.086
14,TETRTFDSEEEGKKAQKEAEKQGRTVTITRRDDRWEVRFD [A12G],0.827
15,TETRTFDSEEETKKAQKEAEKQGRTVTITRRDDRWEVRFD [A12T],1.04
16,TETRTFDSEEELKKAQKEAEKQGRTVTITRRDDRWEVRFD [A12L],1.49
17,TETRTFDSEEEKKKAQKEAEKQGRTVTITRRDDRWEVRFD [A12K],0.241
18,TETRTFDSEEEVKKAQKEAEKQGRTVTITRRDDRWEVRFD [A12V],1.98
19,TETRTFDSEEENKKAQKEAEKQGRTVTITRRDDRWEVRFD [A12N],0.221
20,TETRTFDSEEEQKKAQKEAEKQGRTVTITRRDDRWEVRFD [A12Q],0.157
